Each block holds one molecule with its values, some of them ahead of it.
What was measured:
Assay in all cases: SEC; Superdex 200 HR 16/60 GL, 4°C, 0.5 mL/min, 20 mM HEPES pH 7.6; apparent masses from Kav against marker proteins; apparent oligomeric state = extrapolated mass / calculated monomer mass (with His-tag)
[1] = molecular target: IM30 α1-4 (helices 1-4) (Synechocystis sp. PCC 6803)
[2] = molecular target: IM30 α1-3 (helices 1-3) (Synechocystis sp. PCC 6803)
[3] = molecular target: the molecule itself

stoichiometry N [1]: 2.2
Molecule: IM30 α1-4 (helices 1-4) (domain or fragment)

stoichiometry N [2]: 1.76
Molecule: IM30 α1-3 (helices 1-3) (domain or fragment)

B1: inner membrane-associated protein of 30 kDa (IM30) wt, Synechocystis sp. PCC 6803 (natural protein, UniProt Q55707 1-267, looked up)
chain: MGLFDRLGRVVRANLNDLVSKAEDPEKVLEQAVIDMQEDLVQLRQAVARTIAEEKRTEQRLNQDTQEAKKWEDRAKLALTNGEENLAREALARKKSLTDTAAAYQTQLAQQRTMSENLRRNLAALEAKISEAKTKKNMLQARAKAAKANAELQQTLGGLGTSSATSAFERMENKVLDMEATSQAAGELAGFGIENQFAQLEASSGVEDELAALKASMAGGALPGTSAATPQLEAAPVDSSVPANNASQDDAVIDQELDDLRRRLNNL
notes: IM30 (Vipp1) of the cyanobacterium Synechocystis sp; PCC 6803, wild type, helices 1-7; the last residue is 267 (α4-7 = amino acids 147-267); Forms rings of variable size; also called Vipp1; full-length protein; source: heterologously expressed and purified (as in Fuhrmann et al., 2009a)
binding result [3]: binds

From PMC6374351, “The Fusion Activity of IM30 Rings Involves Controlled Unmasking of the Fusogenic Core” (Frontiers in Plant Science, 2019)
